{
  "source": "patent US20250012721A1",
  "about": "(JIANGSU UNIVERSITY, published 2025)",
  "binders": {"B1": {"name": "C1s recombinant antibody (antibody, human IgG4 S228P, kappa, V domains shown)", "VH": "EVQLVESGGGLVKPGGSLRLSCAASGFTFSNYAMSWVRQAPGKGLEWVATISSGGSHTYYLDSVKGRFTISRDNSKNTLYLQMNSLRAEDTALYYCARLFTGYAMDYWGQGTLVTVSS", "VL": "QIVLTQSPATLSLSPGERATMSCTASSSVSSSYLHWYQQKPGKAPKLWIYSTSNLASGVPSRFSGSGSGTDYTLTISSLQPEDFATYYCHQYYRLPPITFGQGTKLEIKR", "notes": "The summary and claim 1 call the same entries variable regions; Expressed in HEK293T; also called C1s-specific recombinant antibody; recombinant anti-C1s antibody"}},
  "key": {"C1r protein": {"biological_target": "T1, C1r protein (UniProt P00736 18-705)", "T1 construct": "also called Cir protein", "T1 sequence (looked up)": "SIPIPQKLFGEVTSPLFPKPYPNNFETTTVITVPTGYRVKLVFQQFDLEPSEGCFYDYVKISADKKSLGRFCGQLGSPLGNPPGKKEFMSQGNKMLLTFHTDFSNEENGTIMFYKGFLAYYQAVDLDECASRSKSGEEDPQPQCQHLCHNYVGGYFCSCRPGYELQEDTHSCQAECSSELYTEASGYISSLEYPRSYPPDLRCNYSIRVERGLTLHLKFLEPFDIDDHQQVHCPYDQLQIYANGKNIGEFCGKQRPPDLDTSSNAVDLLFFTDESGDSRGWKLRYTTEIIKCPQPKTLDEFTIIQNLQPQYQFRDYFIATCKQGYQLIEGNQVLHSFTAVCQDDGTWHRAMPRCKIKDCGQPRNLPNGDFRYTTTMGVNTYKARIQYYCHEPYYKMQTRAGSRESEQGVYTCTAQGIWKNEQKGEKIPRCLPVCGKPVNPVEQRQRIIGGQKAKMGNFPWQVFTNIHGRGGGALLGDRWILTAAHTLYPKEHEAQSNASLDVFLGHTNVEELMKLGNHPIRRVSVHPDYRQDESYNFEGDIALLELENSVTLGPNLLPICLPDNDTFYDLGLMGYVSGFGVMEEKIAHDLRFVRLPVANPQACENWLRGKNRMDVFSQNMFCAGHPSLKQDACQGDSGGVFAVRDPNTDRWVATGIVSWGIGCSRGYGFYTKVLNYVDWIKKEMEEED", "experiment": "indirect ELISA, antigen coated at 1 µg/ml, Goat anti-Human IgG-HRP detection, OD 450 nm", "procedure": "In this example, the antigen-binding specificity of the C1s recombinant antibody was analyzed by an indirect ELISA method according to the principle of the specificity detection of the C1s recombinant antibody shown in FIG. 4. An analysis method included the following steps:\n200 μL (1 μg/ml) of C1s antigen (single-stranded unactivated C1s protein, double-stranded activated C1s protein, or C1r protein) was added respectively to wells of a microtiter plate, and the microtiter plate was gently shaken to make the antigen cover a well bottom of the microtiter plate. Incubation was performed overnight at 4° C. After washing the plate 3 times with a warm PBS, 200 μL of a blocking solution (10 mM PBS, 1% BSA, 0.1% casein) was added to perform blocking. Incubation was next performed at 37° C. for 1 h. The plate was washed 5 times with PBS. 100 μL of the C1s recombinant antibody was added in each well (an initial concentration of a first well was 10 μg/mL, then diluted down to 7 wells according to a ratio of ¼ gradient to set up duplicate wells), incubation was performed at 37° C. for 1 h. The liquid in the microtiter plate was spin-dried, and the plate was washed with 200 μL of warm PBS 5 times. 100 μL of a diluted secondary antibody (Goat anti-Human IgG-HRP) was added to each well of the microtiter plate. […] An optical density (OD) was read at 450 nm on the microplate reader."}, "MASP2": {"biological_target": "MASP2 (UniProt O00187 16-686, limits assumed)", "sequence (O00187 16-686 limits assumed)": "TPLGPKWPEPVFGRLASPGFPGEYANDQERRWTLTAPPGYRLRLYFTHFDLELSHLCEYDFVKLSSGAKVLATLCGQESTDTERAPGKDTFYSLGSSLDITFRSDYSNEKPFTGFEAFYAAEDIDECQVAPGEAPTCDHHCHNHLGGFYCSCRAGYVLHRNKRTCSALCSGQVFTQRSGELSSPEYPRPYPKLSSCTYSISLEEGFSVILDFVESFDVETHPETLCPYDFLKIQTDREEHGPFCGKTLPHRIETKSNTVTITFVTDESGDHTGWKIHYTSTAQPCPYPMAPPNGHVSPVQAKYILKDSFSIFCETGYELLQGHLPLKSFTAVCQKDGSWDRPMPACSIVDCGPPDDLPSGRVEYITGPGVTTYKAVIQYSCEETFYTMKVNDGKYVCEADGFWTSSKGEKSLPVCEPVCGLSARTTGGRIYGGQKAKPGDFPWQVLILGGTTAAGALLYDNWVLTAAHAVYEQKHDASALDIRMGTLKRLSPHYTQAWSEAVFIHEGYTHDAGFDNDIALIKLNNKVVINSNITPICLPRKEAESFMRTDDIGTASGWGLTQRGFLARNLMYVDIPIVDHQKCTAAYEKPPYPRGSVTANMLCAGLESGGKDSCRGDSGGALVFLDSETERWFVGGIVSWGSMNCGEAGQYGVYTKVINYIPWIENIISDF", "experiment": "cell-based or functional assay"}, "MASP1": {"biological_target": "T2, MASP1 (UniProt P48740 20-699, limits assumed)", "T2 sequence (looked up)": "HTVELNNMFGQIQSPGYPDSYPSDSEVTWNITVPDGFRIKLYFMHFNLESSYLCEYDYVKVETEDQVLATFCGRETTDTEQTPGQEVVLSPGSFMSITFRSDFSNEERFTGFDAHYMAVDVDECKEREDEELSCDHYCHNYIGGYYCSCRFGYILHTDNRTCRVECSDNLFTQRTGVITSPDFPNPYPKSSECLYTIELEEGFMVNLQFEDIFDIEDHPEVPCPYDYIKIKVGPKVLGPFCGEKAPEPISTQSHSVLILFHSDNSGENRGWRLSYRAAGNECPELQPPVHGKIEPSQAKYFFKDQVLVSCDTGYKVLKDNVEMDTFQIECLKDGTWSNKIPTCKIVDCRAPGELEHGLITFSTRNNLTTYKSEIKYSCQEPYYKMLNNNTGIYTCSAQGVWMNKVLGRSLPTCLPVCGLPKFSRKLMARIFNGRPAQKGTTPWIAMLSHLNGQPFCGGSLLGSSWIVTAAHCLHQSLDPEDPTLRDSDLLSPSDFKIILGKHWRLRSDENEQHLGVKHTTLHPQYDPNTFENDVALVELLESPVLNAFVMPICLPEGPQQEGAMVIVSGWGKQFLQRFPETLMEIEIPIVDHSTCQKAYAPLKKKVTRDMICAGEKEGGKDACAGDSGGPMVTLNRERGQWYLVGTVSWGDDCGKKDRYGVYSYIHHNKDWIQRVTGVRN", "experiment": "cell-based or functional assay"}, "double-stranded C1r": {"biological_target": "T3, double-stranded C1r (UniProt P00736 18-705)", "T3 sequence (looked up)": "T1 sequence (looked up)", "experiment": "cell-based or functional assay"}},
  "note": "Where “and” joins values, the source holds several entries; their conditions need not be identical. Identical values can stand only once.",
  "data": [
    {"binder": "B1", "values": [
      {"measurement": "binding result", "setting": "C1r protein", "result": "no binding"},
      {"measurement": "Cross reaction rate (%)", "setting": "MASP2", "result": 0.04, "unit": "%"},
      {"measurement": "Measured concentration", "setting": "MASP2", "result": "1.64 pmol/min/µg and 1.8 µg/mL"},
      {"measurement": "Cross reaction rate (%)", "setting": "MASP1", "result": 0.04, "unit": "%"},
      {"measurement": "Measured concentration", "setting": "MASP1", "result": "1.82 pmol/min/µg and 2 µg/mL"},
      {"measurement": "Cross reaction rate (%)", "setting": "double-stranded C1r", "result": 0.15, "unit": "%"},
      {"measurement": "Measured concentration", "setting": "double-stranded C1r", "result": "0.91 pmol/min/µg and 1 µg/mL"}
    ]}
  ]
}
